According to the supplement of paper PMC10567573:

B1: ZNF263 (parent)
chain: QPKKLHLCPLCGKNFSNNSNLIRH
B2: FAM164C (parent)
chain: YPHCTGISQQDPESDSQGQGNGLF

Variants of: B1
Assay: protein stability index of a GFP-peptide fusion (GPS, HEK-293T) (PSI 1-6); higher = more stable
Details: c terminus: a fixed tail appended
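Note: lentivirally expressed fusions sorted by FACS into six bins by GFP to DsRed ratio, PSI derived from sequencing read proportions per bin multiplied by bin number.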

Protein stability index: each site, then its substitutions
L21: R 2.64; N 2.44; C 3.13; D 2.72; F 2.32; K 2.87; V 2.85; E 2.92; Q 2.38; H 2.83; S 2.19; W 2.44; M 2.48; I 2.47; G 2.62; A 2.56; Y 2.12; T 2.56; P 1.93
S19: L 2.96; D 3.24; M 2.7; C 3.3; P 1.77; Y 2.6; F 2.54; G 1.96; R 2.5; N 2.89; Q 2.69; I 2.58; E 3.14; T 2.75; A 2.65; V 2.43; W 2.67; K 3.37; H 2.55
H24: E 2.43; P 2.56; R 2.07; V 2.27; Q 2.43; F 2.44; L 2.24; T 2.35; G 2.43; A 1.74; N 2.22; I 2.08; C 1.84; S 2.4; M 2.31; Y 2.61; D 2.11; K 2.64; W 2.38
G12: M 1.79; C 2.47; P 2.3; T 3.13; V 2.36; I 2.44; Q 2.53; L 2.07; Y 2.68; E 2; F 1.39; H 2.4; K 2.13; N 2.45; W 1.94; S 1.99; A 2.27; D 2.11; R 2.34
C11: Y 1.68; T 3.11; V 2.48; W 1.74
N18: T 2.45; P 3.28; C 2.48; M 2.5; L 3.11; H 2.82; A 2.97; G 1.8; I 2.33; Y 3.22; S 2.39; E 3.66; Q 3.17; D 2.8; K 2.31; V 2.86; R 3.36; F 2.76; W 2.73
N17: Q 2.42; V 2.18; E 2.33; M 2.26; P 2.33; T 2.91; L 2.58; K 2.28; H 2.43; F 2.06; I 2.25; S 2.66; G 2.09; Y 2.23; D 2.48; R 2.07; C 2.33; A 2.69; W 2.15
K13: M 2.69; Q 2.11; E 2.29; A 3.12; W 1.8; P 1.82; S 2.41; D 1.67; N 2.77; L 2.21; T 2.15; V 2; F 2.51; R 2.53; C 2.47; Y 2.91; I 1.89; G 2.24; H 2.62
N14: S 3.48; K 2.94; W 3.51; P 2.61; L 2.84; R 2.35; C 3.93; A 3.29; T 2.97; D 2.08; E 3.52; F 2.69; V 3.04; G 2.63; Q 3.1; I 3.33; M 2.83; Y 2.57; H 3.06
N20: H 2.69; E 3.42; V 2.04; S 3.09; F 1.57; I 1.94; C 3.21; A 3.25; M 2.54; G 2.46; D 4; K 3; L 3.05; Q 4.04; P 2.49; T 2.94; R 2.01; Y 2.56; W 1.57
I22: A 2.8; S 2.55; M 2.88; N 2.5; E 3.45; F 2.47; P 2.19; D 2.86; T 2.35; V 2.73; H 2.76; Q 3.09; G 1.98; K 2.33; Y 2.69; L 2.93; C 4.04; R 2.76; W 1.79
S16: F 2.48; K 2.56; G 3.42; E 2.62; T 2.21; Q 2.44; M 2.96; C 2.57; Y 2.6; D 2.72; L 2.34; N 2.38; W 2.09; P 2.49; V 2.05; A 2.4; H 2.42; I 2.36; R 2.17
R23: I 1.91; C 3; P 2.93; E 3.06; M 2.52; D 3.77; G 2.65; H 2.56; W 1.76; A 3.08; F 2.42; K 3.19; V 2.33; S 2.78; Q 2.77; Y 1.91; N 2.96; L 2; T 2.92
F15: C 2.53; S 2.19; G 1.8; H 3.33; I 2.36; P 2.22; A 2.03; R 2.61; N 2.45; V 1.82; K 2.06; M 1.99; Q 1.89; D 2.56; W 1.95; Y 2.46; T 1.95; E 2.07; L 2

Variants of: B2
Assay: as above
Details: c terminus: a fixed tail appended

Protein stability index: each site, then its substitutions
C4: R 4.06; W 2.75; I 3.72; Y 3.17; G 3.5; P 3.37; N 4.25; K 4.39; T 4.32; Q 4.53; L 4.36; E 4.82; F 3.58; V 4.07; H 4.24; S 4.16; D 5.02; M 4.36; A 3.92
Y1: A 5.44; F 3.49; L 5.44; M 5.4; G 5.44; V 5.07; E 5.25; N 5.28; K 5.28; C 4.29; Q 5.36; H 4.85; T 5.38; R 4.63; P 5.37; S 5.39; W 4.43; I 5.14; D 5.46
H3: W 3.22; D 4.48; P 3.32; E 4.58; N 4.09; V 4.34; R 3.6; T 4.12; K 3.9; M 3.46; F 4; I 4.18; C 3.1; L 3.37; Y 3.2; S 3.07; A 3.75; G 3.39; Q 3.29
P2: Y 4.22; D 5.09; L 3.96; V 1.91; E 5.31; M 4.07; K 4.51; I 2.83; Q 3.58; S 4.65; C 2.45; A 3.57; R 4.71; N 4.54; T 3.35; H 2.9; G 4.47; W 3.67; F 3.86
T5: D 4.6; A 3.46; C 1.9; G 2.93; F 2.32; H 3.2; E 4.49
